# What was measured:
# myosin = target: T1, myosin (Gallus gallus, UniProt P10587); test: Myosin binding assay (pelleting with myosin); parameters: species or system chicken; settings: myosin 1 μM, 15 min 0° C.
# T1 construct: from tissue; host or cells: chicken gizzard
# Method in brief: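 PP1M, PP1c, PP1M(ΔM21) or M110 fragments (30 nM; M110 fragments and M21 at 100 nM) incubated 15 min at 0° C with 1 μM myosin in 10 mM Hepes pH 7.5, 50 mM KCl, 5 mM MgCl2, then centrifuged 2 min at 13,000×g. Supernatant, pellet and total analysed by immunoblot or P-light chain phosphatase activity.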
# M21 subunit = test: Far Western blotting: interaction with the M21 subunit; assay type: binding, chicken; settings: probe 0.2 μg/ml
# Method in brief: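 Proteins (PP1M, M110 and M21 fragments, MBP or GST fusions) resolved on 12% or 16.5% SDS gels, transferred to nitrocellulose and probed with digoxigenin-labelled M21, M21-(M1-L146) or MBP-M110-(K933-I1004) at 0.2 μg/ml. Parallel gels Coomassie-stained; protein by Bradford.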
# T1 sequence (P10587 whole entry): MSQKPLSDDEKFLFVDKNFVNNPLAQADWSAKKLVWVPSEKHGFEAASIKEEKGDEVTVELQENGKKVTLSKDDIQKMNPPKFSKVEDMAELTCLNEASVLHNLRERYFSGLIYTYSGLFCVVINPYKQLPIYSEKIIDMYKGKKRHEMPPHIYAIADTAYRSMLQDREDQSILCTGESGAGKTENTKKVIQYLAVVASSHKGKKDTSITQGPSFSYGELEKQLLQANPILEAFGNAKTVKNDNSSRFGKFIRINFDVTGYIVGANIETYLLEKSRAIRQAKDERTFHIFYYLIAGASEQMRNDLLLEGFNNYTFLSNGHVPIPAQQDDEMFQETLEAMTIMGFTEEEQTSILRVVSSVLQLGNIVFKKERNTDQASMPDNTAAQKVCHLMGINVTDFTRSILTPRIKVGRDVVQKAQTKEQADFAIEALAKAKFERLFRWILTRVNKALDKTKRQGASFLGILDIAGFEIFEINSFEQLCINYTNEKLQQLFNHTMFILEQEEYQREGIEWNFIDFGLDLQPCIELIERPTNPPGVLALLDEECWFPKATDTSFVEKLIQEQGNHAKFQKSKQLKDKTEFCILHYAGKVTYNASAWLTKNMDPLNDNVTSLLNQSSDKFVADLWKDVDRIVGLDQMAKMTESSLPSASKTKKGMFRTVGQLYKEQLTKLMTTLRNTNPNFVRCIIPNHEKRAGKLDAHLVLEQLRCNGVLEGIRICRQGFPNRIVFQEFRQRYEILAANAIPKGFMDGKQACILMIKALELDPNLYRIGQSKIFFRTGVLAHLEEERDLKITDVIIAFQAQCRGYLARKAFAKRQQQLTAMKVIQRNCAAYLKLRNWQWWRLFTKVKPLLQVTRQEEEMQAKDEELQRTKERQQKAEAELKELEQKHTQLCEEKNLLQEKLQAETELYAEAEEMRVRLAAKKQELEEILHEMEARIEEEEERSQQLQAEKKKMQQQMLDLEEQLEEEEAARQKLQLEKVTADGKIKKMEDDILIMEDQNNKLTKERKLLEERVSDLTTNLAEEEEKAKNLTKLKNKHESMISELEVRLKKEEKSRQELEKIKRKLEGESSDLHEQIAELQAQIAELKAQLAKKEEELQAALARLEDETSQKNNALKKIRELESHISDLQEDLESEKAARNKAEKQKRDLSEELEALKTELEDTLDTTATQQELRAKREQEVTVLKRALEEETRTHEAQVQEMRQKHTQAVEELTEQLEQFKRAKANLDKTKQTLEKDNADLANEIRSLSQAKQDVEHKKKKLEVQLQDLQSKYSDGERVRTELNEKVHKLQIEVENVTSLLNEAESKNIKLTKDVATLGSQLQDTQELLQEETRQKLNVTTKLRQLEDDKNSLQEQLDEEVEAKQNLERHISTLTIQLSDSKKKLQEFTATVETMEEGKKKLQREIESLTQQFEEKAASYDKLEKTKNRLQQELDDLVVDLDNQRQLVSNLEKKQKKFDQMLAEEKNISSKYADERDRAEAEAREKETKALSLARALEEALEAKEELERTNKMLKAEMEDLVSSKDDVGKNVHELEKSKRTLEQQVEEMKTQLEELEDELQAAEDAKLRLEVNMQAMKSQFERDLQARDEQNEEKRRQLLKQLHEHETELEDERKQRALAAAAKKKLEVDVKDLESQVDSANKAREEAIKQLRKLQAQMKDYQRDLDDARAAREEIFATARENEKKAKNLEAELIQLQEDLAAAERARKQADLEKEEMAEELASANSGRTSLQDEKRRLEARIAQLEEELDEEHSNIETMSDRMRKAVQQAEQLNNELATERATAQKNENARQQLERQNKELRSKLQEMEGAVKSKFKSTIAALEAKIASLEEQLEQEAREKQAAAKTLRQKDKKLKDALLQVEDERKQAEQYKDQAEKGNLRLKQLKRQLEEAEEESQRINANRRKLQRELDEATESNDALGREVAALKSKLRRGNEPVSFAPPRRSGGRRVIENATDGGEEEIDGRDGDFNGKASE
# T1 sequence (P02612 whole entry partner): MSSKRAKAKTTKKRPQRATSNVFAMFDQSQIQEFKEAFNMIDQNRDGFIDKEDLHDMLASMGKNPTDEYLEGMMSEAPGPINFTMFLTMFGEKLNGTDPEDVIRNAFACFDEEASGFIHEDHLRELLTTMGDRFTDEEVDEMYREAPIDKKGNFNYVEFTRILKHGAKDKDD
# T1 sequence (P02607 whole entry partner): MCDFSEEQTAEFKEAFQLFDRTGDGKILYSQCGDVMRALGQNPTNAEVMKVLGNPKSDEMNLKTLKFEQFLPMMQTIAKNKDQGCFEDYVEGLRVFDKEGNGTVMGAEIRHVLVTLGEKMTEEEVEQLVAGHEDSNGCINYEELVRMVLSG
# M21 subunit, sequence (as listed by the source): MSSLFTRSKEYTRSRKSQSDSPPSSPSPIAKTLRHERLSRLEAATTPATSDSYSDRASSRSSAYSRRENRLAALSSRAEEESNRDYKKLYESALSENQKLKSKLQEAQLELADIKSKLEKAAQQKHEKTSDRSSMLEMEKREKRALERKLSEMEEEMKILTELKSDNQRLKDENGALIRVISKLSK
molecule,measurement,setting,value
"M110-(M1-E309): rat aorta M110 fragment, residues 1-309, released from GST-fusion protein with thrombin (protein) GSPGMKMADAKQKRNEQLKRWIGSETDLEPPVVKRQKTKVKFDDGAVFLAACSSGDTDEVLKLLHRGADINYANVDGLTALHQACIDDNVDMVKFLVENGANINQPDNEGWIPLHAAASCGYLDIAEFLIGQGAHVGAVNSEGDTPLDIAEEEAMEELLQNEVNRQGVDIEAARKEEERIMLRDARQWLNSGHISDVRHAKSGGTALHVAAAKGYTEVLKLLIQAGYDVNIKDYDGWTPLHAAAHWGKEEACRILVDNLCDMETVNKVGQTAFDVADEDILGYLEELQKKQNLLHSEKRDKKSPLIESTANMEA",binding to myosin,myosin,did not bind to myosin
same,recognised by digoxigenin-labelled M21 subunit in Far Western blotting,M21 subunit,not
